Experimental data published in patent US20200399308A1, “COMPOUNDS AND METHODS FOR ELICITING ANTIMICROBIAL ACTIVITY” (Technion Research & Development Foundation Limited, priority 2018, published 2020).

Columns and labels:
[1] = system: Klebsiella pneumoniae 1287; assay: Serum survival assay; type: cell-based; conditions: mouse serum; 13 μM lactoferrin with 10 μM Compound B
Experimental: (§1) Serum survival assays were performed using fresh serum from normal mice or human serum from the Israel Blood Bank; samples were pooled and stored in aliquots at −80° C. until use. Time-dependent killing was determined in a final volume of 125 μL consisting of 112.5 μL of serum containing either a tested compound, egg white lysozyme (Amresco), lactoferrin (Vivinal lactoferrin FD; DMV International, Delhi, N.Y.), anti-murine C5/C5a antibody (25 μg/mL; ab194637; Abcam), or their combination, as specified. These solutions were supplemented with 12.5 μL of bacteria suspended in PBS at the desired concentration. After the specified time points of exposure, cultures were subjected to serial 10-fold dilutions in saline (0.85% NaCl) and plated for bacterial enumeration after incubation at 37° C. for an additional 24 hours. In heat-treated experiments, sera were incubated at 56° C. for 30 minutes for protein inactivation. Data were obtained from 3 independent experiments.

[2] = system: Escherichia coli 25922; assay: Serum survival assay; type: cell-based; conditions: mouse serum; 13 μM lactoferrin with 10 μM Compound B
Experimental: as §1

B1: lactoferrin: host defense antimicrobial protein (Vivinal lactoferrin FD) (protein, UniProt P24627 20-708, looked up)
Lactotransferrin: APRKNVRWCTISQPEWFKCRRWQWRMKKLGAPSITCVRRAFALECIRAIAEKKADAVTLDGGMVFEAGRDPYKLRPVAAEIYGTKESPQTHYYAVAVVKKGSNFQLDQLQGRKSCHTGLGRSAGWIIPMGILRPYLSWTESLEPLQGAVAKFFSASCVPCIDRQAYPNLCQLCKGEGENQCACSSREPYFGYSGAFKCLQDGAGDVAFVKETTVFENLPEKADRDQYELLCLNNSRAPVDAFKECHLAQVPSHAVVARSVDGKEDLIWKLLSKAQEKFGKNKSRSFQLFGSPPGQRDLLFKDSALGFLRIPSKVDSALYLGSRYLTTLKNLRETAEEVKARYTRVVWCAVGPEEQKKCQQWSQQSGQNVTCATASTTDDCIVLVLKGEADALNLDGGYIYTAGKCGLVPVLAENRKSSKHSSLDCVLRPTEGYLAVAVVKKANEGLTWNSLKDKKSCHTAVDRTAGWNIPMGLIVNQTGSCAFDEFFSQSCAPGADPKSRLCALCAGDDQGLDKCVPNSKEKYYGYTGAFRCLAEDVGDVAFVKNDTVWENTNGESTADWAKNLNREDFRLLCLDGTRKPVTEAQSCHLAVAPNHAVVSRSDRAAHVKQVLLHQQALFGKNGKNCPDKFCLFKSETKNLLFNDNTECLAKLGGRPTYEEYLGTEYVTAIANLKKCSTSPLLEACAFLTR
With B1 the “sensitization by Compound B to lactoferrin” value [1] was “no significant sensitization” and the “sensitization by Compound B to lactoferrin” value [2] was “no significant sensitization”.
